Assay [1] has as its target plasmepsin V in P. falciparum parasites (endogenous enzyme in trophozoites expressing PfEMP3-GFP) (Plasmodium falciparum, UniProt Q8I6Z5 1-590). In words: cell-based or functional assay.
Assay [2] concerns the target recombinant P. falciparum plasmepsin V (residues N80-R528) (Plasmodium falciparum, UniProt Q8I6Z5 80-528). In words: cell-based or functional assay.

Square brackets hold non-standard residues; d marks the D form. * marks the point of attachment. Sta = CC(C)C[C@H](N)[C@@H](O)CC(=O)O; NHPhenethyl = c1ccc(CCN*)cc1; Cbz = O=C(OCc1ccccc1)*

Chain of plasmepsin V in P. falciparum parasites (endogenous enzyme in trophozoites expressing PfEMP3-GFP) (Q8I6Z5 whole entry, the tested form may be a part): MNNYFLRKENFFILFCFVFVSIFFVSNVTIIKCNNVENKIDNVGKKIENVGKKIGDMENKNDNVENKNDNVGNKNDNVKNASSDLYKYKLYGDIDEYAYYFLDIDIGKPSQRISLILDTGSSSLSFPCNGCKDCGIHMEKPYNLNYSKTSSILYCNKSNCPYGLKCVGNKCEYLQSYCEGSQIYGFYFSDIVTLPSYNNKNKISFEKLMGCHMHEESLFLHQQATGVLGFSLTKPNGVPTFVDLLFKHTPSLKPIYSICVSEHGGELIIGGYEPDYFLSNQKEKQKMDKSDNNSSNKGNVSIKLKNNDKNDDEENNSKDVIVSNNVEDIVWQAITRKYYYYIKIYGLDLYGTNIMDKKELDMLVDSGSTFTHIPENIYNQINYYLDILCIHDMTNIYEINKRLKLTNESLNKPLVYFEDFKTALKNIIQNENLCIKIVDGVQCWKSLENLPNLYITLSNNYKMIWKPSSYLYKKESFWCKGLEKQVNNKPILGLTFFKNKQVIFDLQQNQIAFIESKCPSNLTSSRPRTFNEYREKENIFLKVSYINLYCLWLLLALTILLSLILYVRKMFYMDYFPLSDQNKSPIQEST
Chain of recombinant P. falciparum plasmepsin V (residues N80-R528) (Q8I6Z5 80-528): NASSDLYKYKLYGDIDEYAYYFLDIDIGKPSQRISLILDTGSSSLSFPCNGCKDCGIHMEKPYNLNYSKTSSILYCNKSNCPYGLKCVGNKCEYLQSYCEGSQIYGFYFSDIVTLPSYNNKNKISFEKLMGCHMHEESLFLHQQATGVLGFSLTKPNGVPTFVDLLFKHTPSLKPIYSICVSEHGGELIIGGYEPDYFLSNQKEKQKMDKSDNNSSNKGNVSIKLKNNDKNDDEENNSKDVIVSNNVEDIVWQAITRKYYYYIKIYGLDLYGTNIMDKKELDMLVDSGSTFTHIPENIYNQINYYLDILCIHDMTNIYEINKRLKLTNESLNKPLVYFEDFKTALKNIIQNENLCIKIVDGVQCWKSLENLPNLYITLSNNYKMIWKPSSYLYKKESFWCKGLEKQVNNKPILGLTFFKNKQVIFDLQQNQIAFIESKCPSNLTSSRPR

B1: WEHI-842, Cbz-Cav(NH2)-Val-Sta-NH(CH2)2Ph.TFA (peptide)
peptide: Cbz-X-Val-[Sta]-NHPhenethyl
modifications: not fully specified (residue 1); printed as Cbz-Cav(NH2)-Val-Sta-NH(CH2)2Ph; also: TFA salt
As for B1, in assay [1], the “inhibition of PEXEL processing of PfEMP3-GFP in parasites, immunoblot, fold against WEHI-916” value came out at 10 fold; the “inhibition of PfEMP3-GFP PEXEL cleavage in parasites, radiolabelling and densitometry, fold against WEHI-916” value came to 10 fold. Moreover, the “IC50, inhibition of cleavage of the fluorogenic KAHRP PEXEL peptide” value in assay [2] is 0.79 nM.

The values are drawn from patent US20190065668A1 (published 2019).
